Measured values from patent CN105542008A (UNIV NANCHANG, dated 2016).

Assays:
重组表达的PSMA胞外区蛋白 = biological target: T1, 重组表达的PSMA胞外区蛋白 (UniProt Q04609 44-750, limits assumed); assay: indirect phage-ELISA, PSMA extracellular domain coated at 5 μg/mL, HRP-anti-M13 detection
T1 construct: extracellular domain; also called 前列腺特异性膜抗原膜外区; PSMA蛋白; not shown: His tag (purified on HisTrap, detected with anti-His antibody)

[1] = biological target: T2, 前列腺特异性膜抗原 (PSMA) on LNCaP cells (UniProt Q04609 1-750, limits assumed); assay: cell ELISA (HRP-anti-M13) and immunofluorescence on fixed LNCaP cells, with PSMA-negative MKN45 cells as comparison
T2 construct: whole, on cells; also called LNCaP细胞(表达PSMA)
T2 sequence (Q04609 whole entry): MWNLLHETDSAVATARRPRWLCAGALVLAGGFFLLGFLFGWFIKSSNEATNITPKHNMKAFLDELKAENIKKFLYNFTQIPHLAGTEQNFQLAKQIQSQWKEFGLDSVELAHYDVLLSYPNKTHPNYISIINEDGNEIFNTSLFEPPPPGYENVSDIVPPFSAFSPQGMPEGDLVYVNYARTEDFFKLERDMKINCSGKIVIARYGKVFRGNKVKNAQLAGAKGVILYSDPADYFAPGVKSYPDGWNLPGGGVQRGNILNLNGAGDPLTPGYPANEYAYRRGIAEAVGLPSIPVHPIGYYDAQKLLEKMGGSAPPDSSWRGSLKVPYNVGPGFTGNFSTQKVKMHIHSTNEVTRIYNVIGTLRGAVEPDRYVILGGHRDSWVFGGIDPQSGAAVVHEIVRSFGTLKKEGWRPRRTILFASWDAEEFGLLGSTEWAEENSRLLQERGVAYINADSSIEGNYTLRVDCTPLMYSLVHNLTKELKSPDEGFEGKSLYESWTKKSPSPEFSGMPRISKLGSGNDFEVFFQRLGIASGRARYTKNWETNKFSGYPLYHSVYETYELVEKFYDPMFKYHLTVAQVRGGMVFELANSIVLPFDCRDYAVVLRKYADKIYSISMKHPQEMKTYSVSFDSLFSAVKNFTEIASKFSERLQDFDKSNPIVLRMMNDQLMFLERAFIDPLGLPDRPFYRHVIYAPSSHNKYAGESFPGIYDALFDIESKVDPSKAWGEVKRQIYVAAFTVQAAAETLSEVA

T1 sequence (Q04609 44-750 limits assumed): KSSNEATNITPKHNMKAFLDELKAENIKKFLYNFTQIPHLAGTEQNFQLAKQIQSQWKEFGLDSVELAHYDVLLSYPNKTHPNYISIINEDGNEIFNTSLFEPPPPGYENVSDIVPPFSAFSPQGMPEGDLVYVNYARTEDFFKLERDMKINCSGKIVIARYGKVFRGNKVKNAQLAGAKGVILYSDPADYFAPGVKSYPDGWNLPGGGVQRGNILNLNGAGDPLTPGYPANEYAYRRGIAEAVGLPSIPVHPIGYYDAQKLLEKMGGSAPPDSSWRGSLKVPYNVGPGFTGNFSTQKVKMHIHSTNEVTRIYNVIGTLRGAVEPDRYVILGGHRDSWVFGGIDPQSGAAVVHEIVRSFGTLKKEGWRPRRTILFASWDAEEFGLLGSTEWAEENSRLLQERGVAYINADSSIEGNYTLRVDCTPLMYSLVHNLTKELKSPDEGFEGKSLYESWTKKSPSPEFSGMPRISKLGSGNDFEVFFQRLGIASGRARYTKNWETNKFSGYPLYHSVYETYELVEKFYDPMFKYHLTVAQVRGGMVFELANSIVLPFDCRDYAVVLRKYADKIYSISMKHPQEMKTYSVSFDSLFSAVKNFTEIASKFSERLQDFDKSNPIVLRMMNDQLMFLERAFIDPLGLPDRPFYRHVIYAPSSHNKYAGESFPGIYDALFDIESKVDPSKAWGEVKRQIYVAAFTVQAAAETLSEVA

B1: 抗前列腺特异性膜抗原单域重链抗体噬菌体阳性克隆 (VHH)
VHH: QLQLVESGGGLVQPGGSLRLTCTTSGFSLRYHDIGWFRQAPGKEREGVSCITGSLGDPYVDESLQGRFTISRDDHKNMVYLRMNSLKSEDTALYYCAIVRGCKDHDAYADVRARGQGTQVTVSS
notes: also called 针对前列腺特异性膜抗原的单域重链抗体阳性克隆; 展示本发明所述纳米抗体的噬菌体克隆; not shown: the fusion to the phage coat protein is not described
binding result (重组表达的PSMA胞外区蛋白): binds | binding result [1]: binds
